Each substance was assayed against HLA-A*02:01 (Homo sapiens, UniProt P04439, D140Y/D185E/D98H/E176V/E277Q/G131W/G231S/I119V/I121R/I166T/I218V/L300P/L318F/N151K/N90K/P208A/P217A/Q86G/Q94H/R138H/R169H/T345S) (assay: MHC binding assay: UV-ligand exchange with beta2m ELISA (peptide exchange yield)). Details: binding to HLA-A*02:01.
Excerpt: Candidate peptides for T cell based therapies according to the present invention were further tested for their MHC binding capacity (affinity). The individual peptide-MHC complexes were produced by UV-ligand exchange, where a UV-sensitive peptide is cleaved upon UV-irradiation, and exchanged with the peptide of interest as analyzed. Only peptide candidates that can effectively bind and stabilize the peptide-receptive MHC molecules prevent dissociation of the MHC complexes. To determine the yield of the exchange reaction, an ELISA was performed based on the detection of the light chain ([…]) of stabilized MHC complexes. The assay was performed as generally described in Rodenko et al. (Rodenko et al., 2006).
96 well MAXISorp plates (NUNC) were coated over night with 2 ug/ml streptavidin in PBS at room temperature, washed 4× and blocked for 1 h at 37° C. in 2% BSA containing blocking buffer. […] Peptide-MHC monomers of the UV-exchange reaction were diluted 100 fold in blocking buffer. Samples were incubated for 1h at 37° C., washed four times, incubated with 2 ug/ml HRP conjugated anti-β2m for 1h at 37° C., washed again and detected with TMB solution that is stopped with […]. Absorption was measured at 450 nm. Candidate peptides that show a high exchange yield (preferably higher than 50%, most preferred higher than 75%) are generally preferred for a generation and production of antibodies or fragments thereof, and/or T cell receptors or fragments thereof, as they show sufficient avidity to the MHC molecules and prevent dissociation of the MHC complexes.

Row | Substance | Peptide exchange (MHC class I binding score, peptide exchange yield)
1 | 573 (ILVANAIVGV; listed as Homo sapiens) [compound 573] | “+++” (≥50 = +++)
2 | 52 (FLLAHGLGFLL; listed as Homo sapiens) [compound 52] | “++++” (≥75% = ++++)
3 | 76 (ILIDSIYKV; listed as Homo sapiens) [compound 76] | “+++” (≥50 = +++)
4 | 556 (FLTDLEDLTL; listed as Homo sapiens) [compound 556] | “+++” (≥50 = +++)
5 | 479 (SLFGNSGILENV; listed as Homo sapiens) [compound 479] | “+++” (≥50 = +++)
6 | 33 (VLLSLLEKV; listed as Homo sapiens) [compound 33] | “++” (≥20% = ++)
7 | 451 (LLLLDTVTMQV; listed as Homo sapiens) [compound 451] | “++” (≥20% = ++)
8 | 174 (ALAQYLITA; listed as Homo sapiens) [compound 174] | “+++” (≥50 = +++)
9 | 115 (AIAGAGILYGV; listed as Homo sapiens) [compound 115] | “++” (≥20% = ++)
10 | 520 (LAVHPSGVAL; listed as Homo sapiens) [compound 520] | “+” (≥10% = +)
11 | 502 (RLLAQVPGL; listed as Homo sapiens) [compound 502] | “+++” (≥50 = +++)
12 | 563 (WLLPYNGVTV; listed as Homo sapiens) [compound 563] | “+++” (≥50 = +++)
13 | 289 (VLLEIEDLQV; listed as Homo sapiens) [compound 289] | “++++” (≥75% = ++++)
14 | 321 (GLFEDVTQPGILL; listed as Homo sapiens) [compound 321] | “++++” (≥75% = ++++)
15 | 250 (ALSEEGLLVYL; listed as Homo sapiens) [compound 250] | “+++” (≥50 = +++)
16 | 355 (SIQQSIERLLV; listed as Homo sapiens) [compound 355] | “++” (≥20% = ++)
17 | 585 (ALWDLAADKQTL; listed as Homo sapiens) [compound 585] | “++++” (≥75% = ++++)
18 | 374 (FLLQQHLISA; listed as Homo sapiens) [compound 374] | “++” (≥20% = ++)
19 | 466 (VLIANLEKL; listed as Homo sapiens) [compound 466] | “++++” (≥75% = ++++)
20 | 236 (GLLEAKVSL; listed as Homo sapiens) [compound 236] | “+++” (≥50 = +++)
21 | 557 (KLYDDMIRL; listed as Homo sapiens) [compound 557] | “+++” (≥50 = +++)

Row | Substance | Peptide exchange (MHC class I binding score, peptide exchange yield)
22 | 79 (SLFIGEKAVLL; listed as Homo sapiens) [compound 79] | “+++” (≥50 = +++)
23 | 586 (KLKPGDLVGV; listed as Homo sapiens) [compound 586] | “+++” (≥50 = +++)
24 | 493 (GLLGEKTQDLIGV; listed as Homo sapiens) [compound 493] | “+++” (≥50 = +++)
25 | 546 (VMIAGKVAVV; listed as Homo sapiens) [compound 546] | “+++” (≥50 = +++)
26 | 554 (LLMPSSEDLLL; listed as Homo sapiens) [compound 554] | “+++” (≥50 = +++)
27 | 57 (TLAELQPPVQL; listed as Homo sapiens) [compound 57] | “+++” (≥50 = +++)
28 | 97 (SLINGSFLV; listed as Homo sapiens) [compound 97] | “+++” (≥50 = +++)
29 | 596 (ALLDQTKTLAESAL; listed as Homo sapiens) [compound 596] | “+++” (≥50 = +++)
30 | 42 (VLLQKIVSA; listed as Homo sapiens) [compound 42] | “+++” (≥50 = +++)
31 | 266 (KITDTLIHL; listed as Homo sapiens) [compound 266] | “+++” (≥50 = +++)
32 | 124 (ALYETELADA; listed as Homo sapiens) [compound 124] | “++” (≥20% = ++)
33 | 162 (YQQAQVPSV; listed as Homo sapiens) [compound 162] | “+++” (≥50 = +++)
34 | 90 (TLLQIIETV; listed as Homo sapiens) [compound 90] | “+++” (≥50 = +++)
35 | 165 (SLLDEIRAV; listed as Homo sapiens) [compound 165] | “+++” (≥50 = +++)
36 | 543 (GLLPTPITQQASL; listed as Homo sapiens) [compound 543] | “+++” (≥50 = +++)
37 | 143 (LLLDITPEI; listed as Homo sapiens) [compound 143] | “++++” (≥75% = ++++)
38 | 233 (VLSETLYEL; listed as Homo sapiens) [compound 233] | “++” (≥20% = ++)
39 | 616 (VLIDEVESL; listed as Homo sapiens) [compound 616] | “+++” (≥50 = +++)
40 | 464 (ALNDCIYSV; listed as Homo sapiens) [compound 464] | “+++” (≥50 = +++)
41 | 457 (SLLPGNLVEKV; listed as Homo sapiens) [compound 457] | “+++” (≥50 = +++)
42 | 135 (ALSEVDFQL; listed as Homo sapiens) [compound 135] | “+++” (≥50 = +++)

Row | Substance | Peptide exchange (MHC class I binding score, peptide exchange yield)
43 | 575 (YLISQVEGHQV; listed as Homo sapiens) [compound 575] | “+++” (≥50 = +++)
44 | 392 (ALLHPQGFEV; listed as Homo sapiens) [compound 392] | “++” (≥20% = ++)
45 | 251 (ALYTGFSILV; listed as Homo sapiens) [compound 251] | “++” (≥20% = ++)
46 | 270 (LLLDEEGTFSL; listed as Homo sapiens) [compound 270] | “++” (≥20% = ++)
47 | 137 (TLVLTLPTV; listed as Homo sapiens) [compound 137] | “++++” (≥75% = ++++)
48 | 241 (SLVEVNPAYSV; listed as Homo sapiens) [compound 241] | “+++” (≥50 = +++)
49 | 432 (TLIEESAKV; listed as Homo sapiens) [compound 432] | “++” (≥20% = ++)
50 | 86 (NLIGKIENV; listed as Homo sapiens) [compound 86] | “+++” (≥50 = +++)
51 | 635 (SLDSTLHAV; listed as Homo sapiens) [compound 635] | “+++” (≥50 = +++)
52 | 24 (SLSDGLEEV; listed as Homo sapiens) [compound 24] | “++” (≥20% = ++)
53 | 551 (KLYESLLPFA; listed as Homo sapiens) [compound 551] | “+++” (≥50 = +++)
54 | 279 (ALWGGTQPLL; listed as Homo sapiens) [compound 279] | “++” (≥20% = ++)
55 | 379 (IMEGTLTRV; listed as Homo sapiens) [compound 379] | “++” (≥20% = ++)
56 | 548 (ALWENPESGEL; listed as Homo sapiens) [compound 548] | “++” (≥20% = ++)
57 | 526 (RLAEVGQYEQV; listed as Homo sapiens) [compound 526] | “++” (≥20% = ++)
58 | 64 (YAAPGGLIGV; listed as Homo sapiens) [compound 64] | “++” (≥20% = ++)
59 | 223 (ALLENIALYL; listed as Homo sapiens) [compound 223] | “+++” (≥50 = +++)
60 | 153 (FLIANVLYL; listed as Homo sapiens) [compound 153] | “+” (≥10% = +)
61 | 547 (TLDITPHTV; listed as Homo sapiens) [compound 547] | “+++” (≥50 = +++)

Source: patent US10464978B2, “Peptides and combination of peptides for use in immunotherapy against ovarian cancer and other cancers” (immatics biotechnologies GmbH, priority 2015, dated 2019)
